Laboratory results from the supplement of paper PMC10126150.
± gives the standard deviation of the averaged measurements.

Test system: ATP
Assay: switch fluorescence ratio, 500 uM ATP over buffer (Cy3 cluster intensity, sum of 5 cycles each) (fold (ratio)); higher = stronger signal-on switching upon ATP binding; sequences stand for … in TCGTCGGCAGCGTCAGATGTGTATAAGAGACAGTTTTTTTTTTTTTTTTTTTTTTTTT…TC
Details: aptamer strand: ATP DNA aptamer (quencher-CACCTGGGGGAGTATTGCGGAGGAAGG + anchor), 100 nM annealed; ATP concentration: 500 uM
Method in brief: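 Cy3-labelled switching-strand clusters on a modified Illumina MiSeq flow-cell were annealed to 100 nM quencher-labelled ATP aptamer, imaged in selection buffer, then imaged after 15 min with 500 uM ATP at 22 °C. Five buffer/ATP cycles ran, with NaOH stripping and re-annealing between them. The fluorescence ratio is summed target-cycle over summed buffer-cycle Cy3 intensity per cluster, averaged per switch-domain sequence. Clusters outside 100-1000 RFU were excluded.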
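Further: ATP exposure 15 min at 22 °C before imaging.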

Sequence	switch fluorescence ratio
GGGGAGAGAG	0.9747 ± 0.0073
GGGGAGATTC	0.994 ± 0.013
GGGGAGCGAG	1.02 ± 0.046
GGGGAGCTAC	1.17 ± 0.038
GGGGAGGACA	1.04 ± 0.082
GGGGAGGCCT	1.01 ± 0.031
GGGGAGGGAA	1.01 ± 0.027
GGGGAGGTGT	1.05 ± 0.066
GGGGAGTACT	1.34 ± 0.44
GGGGAGTATT	0.971 ± 0.015
GGGGAGTTTC	1.065 ± 0.0042
GGGGATAGAA	0.982 ± 0.014
GGGGATAGGG	0.985 ± 0.016
GGGGATATGA	0.995 ± 0.049
GGGGATCAGG	1.03 ± 0.075
GGGGATGAAT	1 ± 0.024
GGGGATGAGG	0.9698 ± 0.0095
GGGGATTGGA	0.979 ± 0.031
GGGGATTGGG	0.987 ± 0.028
GGGGATTTAG	0.971 ± 0.027
GGGGATTTAT	0.997 ± 0.019
GGGGATTTCT	0.99526 ± 0.00079
GGGGCAAAGG	1.03 ± 0.075
GGGGCACAGC	1 ± 0.016
GGGGCACGTG	0.995 ± 0.015

Sequence	switch fluorescence ratio
GGGGCACTGC	1.008 ± 0.0024
GGGGCACTGT	1.01 ± 0.013
GGGGCAGTCA	0.9785 ± 0.0031
GGGGCATGGG	0.995 ± 0.033
GGGGCCCGGG	1.04 ± 0.036
GGGGCCGGGG	1.01 ± 0.018
GGGGCCGTTA	1.012 ± 0.0042
GGGGCGGCAG	0.998 ± 0.013
GGGGCGGCCC	1.03 ± 0.049
GGGGCGGCGT	1.02 ± 0.065
GGGGCGGGAT	1.01 ± 0.02
GGGGCGGTCT	0.9667 ± 0.004
GGGGCGTAGT	0.9995 ± 0.0075
GGGGCGTGGG	0.963 ± 0.042
GGGGCGTTAT	0.969 ± 0.048
GGGGCTAATG	1.01 ± 0.023
GGGGCTAGAT	1.034 ± 0.0076
GGGGCTAGTA	0.991 ± 0.035
GGGGCTAGTG	0.977 ± 0.046
GGGGCTATTT	1.01 ± 0.066
GGGGCTGCAG	1.09 ± 0.11
GGGGCTGTTG	0.966 ± 0.024
GGGGCTTAAG	1.02 ± 0.035
GGGGCTTCTT	0.9823 ± 0.0038
GGGGCTTGAC	1.01 ± 0.022

Sequence	switch fluorescence ratio
GGGGCTTGGC	0.999 ± 0.031
GGGGCTTGGG	0.989 ± 0.043
GGGGGAAAAG	1.03 ± 0.1
GGGGGAAAAT	0.993 ± 0.042
GGGGGAACGG	1.08 ± 0.1
GGGGGAAGCG	0.9685 ± 0.0034
GGGGGAAGGC	1.15 ± 0.23
GGGGGAAGTT	0.986 ± 0.042
GGGGGAATCC	1.06 ± 0.08
GGGGGACAGC	0.992 ± 0.023
GGGGGACGGC	0.985 ± 0.049
GGGGGACGGG	1.02 ± 0.029
GGGGGACTAG	1.02 ± 0.024
GGGGGACTTG	0.997 ± 0.021
GGGGGAGACA	0.997 ± 0.027
GGGGGAGGCG	1.03 ± 0.082
GGGGGAGGT	0.986 ± 0.038
GGGGGAGTGG	0.982 ± 0.054
GGGGGATTCC	1.02 ± 0.017
GGGGGCAAGA	0.999 ± 0.06
GGGGGCACG	1.006 ± 0.0098
GGGGGCATCA	1.07 ± 0.12
GGGGGCCATG	1.03 ± 0.068
GGGGGCGGAC	0.974 ± 0.097
GGGGGCGGCA	0.988 ± 0.042

Sequence	switch fluorescence ratio
GGGGGCGGGC	1.01 ± 0.081
GGGGGCGTGT	0.977 ± 0.019
GGGGGCTAAA	1.02 ± 0.017
GGGGGCTGCA	1.02 ± 0.032
GGGGGCTGGG	0.992 ± 0.025
GGGGGCTTGG	0.998 ± 0.032
GGGGGGAAAC	1 ± 0.022
GGGGGGAAAT	1.01 ± 0.057
GGGGGGACGG	0.969 ± 0.04
GGGGGGACTT	0.983 ± 0.029
GGGGGGAGTC	1.05 ± 0.028
GGGGGGAGTG	0.975 ± 0.029
GGGGGGATTG	0.99 ± 0.025
GGGGGGCATC	1.01 ± 0.024
GGGGGGCGGT	0.989 ± 0.015
GGGGGGCTTA	0.999 ± 0.018
GGGGGGGAT	1.02 ± 0.025
GGGGGGGCCG	0.993 ± 0.048
GGGGGGGCGG	1 ± 0.024
GGGGGGGGAG	1.01 ± 0.03
GGGGGGGGCC	0.998 ± 0.053
GGGGGGGTAT	1.01 ± 0.036
GGGGGGGTGA	1.01 ± 0.038
GGGGGGGTT	1 ± 0.025
GGGGGGGTTT	1.01 ± 0.074

Sequence	switch fluorescence ratio
GGGGGGTAAG	1 ± 0.021
GGGGGGTCGC	0.99 ± 0.041
GGGGGGTGG	0.9912 ± 0.0055
GGGGGGTGTC	1.01 ± 0.038
GGGGGTAAAA	1.01 ± 0.029
GGGGGTAAGT	1.01 ± 0.02
GGGGGTAATA	0.999 ± 0.021
GGGGGTAATG	0.974 ± 0.035
GGGGGTATAC	1.28 ± 0.11
GGGGGTCATC	0.971 ± 0.011
GGGGGTCCAG	0.997 ± 0.022
GGGGGTCCCT	1.01 ± 0.015
GGGGGTCCGC	1.022 ± 0.0071
GGGGGTCTGT	0.972 ± 0.013
GGGGGTGACG	0.995 ± 0.11
GGGGGTGGGC	1.03 ± 0.035
GGGGGTGTTT	0.998 ± 0.037
GGGGGTTACA	1.005 ± 0.005
GGGGGTTAGG	1.01 ± 0.037
GGGGGTTAGT	1.01 ± 0.014
GGGGGTTCCC	0.9833 ± 0.0017
GGGGGTTCCT	1 ± 0.032
GGGGGTTCGT	0.98 ± 0.036
GGGGGTTTAG	1 ± 0.028
GGGGGTTTGA	1 ± 0.022

Sequence	switch fluorescence ratio
GGGGGTTTGG	0.991 ± 0.03
GGGGTAAAAG	1.08 ± 0.2
GGGGTAAACT	1.01 ± 0.034
GGGGTAAAGC	1 ± 0.018
GGGGTAACAG	1.01 ± 0.044
GGGGTAAGTG	0.987 ± 0.04
GGGGTACAGT	0.9946 ± 0.0091
GGGGTACGCT	0.99523 ± 0.00067
GGGGTACTGG	1.01 ± 0.016
GGGGTACTTT	0.991 ± 0.026
GGGGTAGCCC	0.9977 ± 0.004
GGGGTAGGAG	1.03 ± 0.093
GGGGTAGTAG	0.979 ± 0.013
GGGGTAGTTC	1.01 ± 0.028
GGGGTATTAT	1 ± 0.028
GGGGTATTTT	0.997 ± 0.023
GGGGTCAGTC	0.9933 ± 0.0099
GGGGTCAGTG	0.998 ± 0.054
GGGGTCCGTG	0.993 ± 0.067
GGGGTCCTAG	0.9959 ± 0.0065
GGGGTCCTGA	1.01 ± 0.062
GGGGTCGGTA	0.9893 ± 0.0032
GGGGTCTGCG	1.03 ± 0.059
GGGGTGAATC	1.03 ± 0.045
GGGGTGAGGA	0.981 ± 0.037

Sequence	switch fluorescence ratio
GGGGTGATAT	1.58 ± 0.78
GGGGTGATCG	0.9842 ± 0.0077
GGGGTGCATG	0.997 ± 0.054
GGGGTGCCCG	0.948 ± 0.018
GGGGTGCGGT	0.998 ± 0.017
GGGGTGGAAA	0.979 ± 0.018
GGGGTGGCTA	1.02 ± 0.019
GGGGTGGTGT	1.03 ± 0.027
GGGGTGTACA	0.969 ± 0.027
GGGGTGTGAA	1.03 ± 0.059
GGGGTTAAAC	1.04 ± 0.034
GGGGTTAGAG	0.991 ± 0.033
GGGGTTATCA	0.99 ± 0.014
GGGGTTATTG	0.986 ± 0.038
GGGGTTCGTG	0.975 ± 0.041
GGGGTTGTGC	0.971 ± 0.035
GGGGTTTCGG	1.02 ± 0.087
GGGGTTTCTG	0.986 ± 0.03
GGGGTTTGG	1.004 ± 0.0067
GGGGTTTTCG	1.01 ± 0.029
GGGGTTTTG	0.953 ± 0.0088
GGGTAAATCG	0.981 ± 0.068
GGGTAAGCTT	0.996 ± 0.016
GGGTAAGGGC	1.01 ± 0.031
GGGTAATGAG	1 ± 0.022

Sequence	switch fluorescence ratio
GGGTAATGTG	0.982 ± 0.029
GGGTAATTAT	1.01 ± 0.036
GGGTACAGTT	1.01 ± 0.018
GGGTACGTGG	1.005 ± 0.009
GGGTACGTGT	0.989 ± 0.029
GGGTACTCGC	1.03 ± 0.065
GGGTAGAAGT	0.988 ± 0.023
GGGTAGATGG	0.9704 ± 0.0062
GGGTAGCCGG	1 ± 0.0042
GGGTAGCTAG	1.04 ± 0.022
GGGTAGCTCT	1.06 ± 0.076
GGGTAGGCGT	0.999 ± 0.062
GGGTAGGGAC	1.01 ± 0.026
GGGTAGGGTA	0.9864 ± 0.0082
GGGTAGGGTT	0.9832 ± 0.0077
GGGTAGTTCA	1.009 ± 0.0069
GGGTAGTTGG	0.998 ± 0.082
GGGTATAATA	1.01 ± 0.014
GGGTATAGGG	1.01 ± 0.037
GGGTATATAG	1.02 ± 0.036
GGGTATCAG	0.955 ± 0.03
GGGTATCTCG	0.9938 ± 0.0063
GGGTATGCAT	0.973 ± 0.011
GGGTATGGGG	1.01 ± 0.031
GGGTATGTCC	0.989 ± 0.026
